From patent publication US6964763

How the values were obtained:
[1] = molecular target: Recombinant baculovirus-expressed HIV-1 gp120 derived from the MN isolate (HIV-1 isolate MN) (UniProt P05877); assay: competition: 125I-CD4 on immobilized gp120, 10-fold molar excess of peptide; isolate (MN or LAI) not stated
[2] = molecular target: Recombinant baculovirus-expressed HIV-1 gp120 derived from the LAV isolate (HIV-1 isolate LAV (LAI)) (UniProt P03377); assay: as above
[3] = molecular target: CHO cell-expressed soluble recombinant CD4 (UniProt P01730); assay: competition: 125I-CD4 on immobilized gp120 (MN and LAI), 10-fold molar excess of fusion protein
[4] = molecular target: CSVTCG peptide derived from TSP1 properdin-like Type 1 repeat; assay: solid phase binding, 125I-gp120 on immobilized peptide, saturation isotherms

| Substance | % inhibition [1] | % inhibition [3] | also measured |
| --- | --- | --- | --- |
| CSVTCG peptide derived from TSP1 properdin-like Type 1 repeat | 53% | – | – |
| GRGDS peptide derived from TSP1 calcium binding Type 3 repeat | 4% | – | % inhibition [2]: 4% |
| GST/CD36 fusion protein CFP67-157 (from UniProt P16671 67-157) | – | 89% | – |
| GST/LIMPII fusion protein LFP75-155 (from UniProt Q14108 75-155) | – | 89% | – |
| GST/LIMPII fusion protein LFP156-243 (from UniProt Q14108 156-243) | – | 32% | – |
| Recombinant baculovirus-expressed HIV-1 gp120 derived from the LAV isolate (from UniProt P03377 33-516) | – | – | Kd [4]: 300 nM |
